Consider four molecules from patent publication US20150291685A1 (AstraZeneca / MedImmune, published 2015).

Where a chain is given by its changes, count along the chain named.

In assay [1] the target is T1, S. aureus clumping factor protein ClfA (Staphylococcus aureus, UniProt Q2G015 221-559, limits assumed).
T1 sequence (looked up): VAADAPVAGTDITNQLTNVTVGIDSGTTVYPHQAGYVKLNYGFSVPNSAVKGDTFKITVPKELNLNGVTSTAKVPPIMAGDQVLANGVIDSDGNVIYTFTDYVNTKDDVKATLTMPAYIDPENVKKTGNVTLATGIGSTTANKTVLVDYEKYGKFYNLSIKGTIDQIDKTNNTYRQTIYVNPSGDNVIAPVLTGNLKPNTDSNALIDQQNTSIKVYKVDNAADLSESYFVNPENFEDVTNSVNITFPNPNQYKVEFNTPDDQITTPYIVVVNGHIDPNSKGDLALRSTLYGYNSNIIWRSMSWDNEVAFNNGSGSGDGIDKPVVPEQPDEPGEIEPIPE
As to the kind of experiment: inhibition of ClfA binding to immobilized fibrinogen; the curve reaches about 60-65 % inhibition [table].

Assay [2] concerns the target T1, S. aureus clumping factor protein ClfA. In words: inhibition of ClfA binding to immobilized fibrinogen; the curve reaches about 55-62 % inhibition [table].
Another assay has as its target T2, Neat-1 (Staphylococcus aureus).
T2 construct: domain of IsdH; also called subunit Neat-1 on IsdH; NEAT1 motif of IsdH
In words: competition ELISA: haptoglobin (Hp) binding to Neat-1 of IsdH with rising antibody concentration. For orientation: An ELISA detects its analyte on a solid surface through an enzyme-linked reagent.

Assay [3] concerns the target T3, Neat-2 subunit of IsdH (Staphylococcus aureus, UniProt Q2FXJ2 345-471).
T3 construct: domain: Neat-2; also called subunit Neat-2
T3 sequence (looked up): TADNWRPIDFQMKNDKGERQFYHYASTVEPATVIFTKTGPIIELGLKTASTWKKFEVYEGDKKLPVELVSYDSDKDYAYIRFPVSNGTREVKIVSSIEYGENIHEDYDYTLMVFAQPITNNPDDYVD
As to the kind of experiment: competition ELISA: haptoglobin (Hp) binding to Neat-2 of IsdH with rising antibody concentration.

For assay [4], the target named is T4, S. aureus Iron regulated surface determinant H (IsdH) (Staphylococcus aureus, UniProt Q2FXJ2 41-864, limits assumed).
T4 sequence (looked up): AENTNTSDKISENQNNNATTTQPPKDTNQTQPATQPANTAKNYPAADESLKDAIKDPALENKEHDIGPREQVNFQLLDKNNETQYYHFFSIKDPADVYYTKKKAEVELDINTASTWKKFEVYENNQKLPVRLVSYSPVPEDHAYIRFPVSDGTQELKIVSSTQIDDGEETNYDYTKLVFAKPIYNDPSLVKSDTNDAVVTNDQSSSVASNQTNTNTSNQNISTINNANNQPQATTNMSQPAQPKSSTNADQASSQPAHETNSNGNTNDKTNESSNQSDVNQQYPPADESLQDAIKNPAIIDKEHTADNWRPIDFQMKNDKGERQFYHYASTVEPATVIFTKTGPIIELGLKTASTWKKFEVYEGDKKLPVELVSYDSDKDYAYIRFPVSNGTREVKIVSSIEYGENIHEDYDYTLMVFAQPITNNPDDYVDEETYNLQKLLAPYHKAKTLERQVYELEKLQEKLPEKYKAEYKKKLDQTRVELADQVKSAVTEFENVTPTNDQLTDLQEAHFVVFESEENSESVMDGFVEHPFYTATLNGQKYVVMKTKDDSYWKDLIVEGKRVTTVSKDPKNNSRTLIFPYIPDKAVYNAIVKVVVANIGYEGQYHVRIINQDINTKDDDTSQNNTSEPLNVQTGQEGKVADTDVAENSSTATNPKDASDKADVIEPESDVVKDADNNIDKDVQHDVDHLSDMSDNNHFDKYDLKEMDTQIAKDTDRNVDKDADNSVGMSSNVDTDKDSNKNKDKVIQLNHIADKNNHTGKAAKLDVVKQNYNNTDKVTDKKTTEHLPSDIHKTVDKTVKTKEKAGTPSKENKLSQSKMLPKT
As to the kind of experiment: hu_IgGFc capture assay, mean of three experiments.

Assay [5] concerns the target T3, Neat-2 subunit of IsdH. In words: hu_IgGFc capture assay, mean of three experiments.

B1: mAb 23D6 (antibody, V domains shown)
VH: QVQLVESGGGVVQPGRSLRLSCAASVFTFSSYGMHWVRQAPGKGLEWVALIWFDGSNEYYADSVKGRFTISRDNSKNTLYLQMNSLRAEDTAVYYCARDRGGGYYYYGMDVWGQGTTVTVSS
VL: DIQMTQSPSSLSASVGDRVTITCRASQGIRNDLGWYQQKPGKAPKRLIYAASSLQSGVPSRFSGSGSGTEFTLTISSLQPEDFATYYCLQHNSYPYTFGQGTKLEIK
notes: also called anti-ClfA antibody 23D6
As a reminder, the IC50 is the concentration at which inhibition is half-maximal. High values mean weaker potency in that assay, low ones greater potency in that assay. In assay [1], B1 returned a half-maximal inhibitory concentration (IC50) of 1.92 µg/mL.

B2: anti-ClfA mAb 11H10 (antibody, V domains shown)
VH: EVQLLESGGGLVQPGGSLRLSCAASGFTFSSFAMSWVRQAPGKGLEWVSAISGSGGNTYYADSVKGRFTISRDNSKNTLYLQMNSLRAEDTAVYYCAKIAFDIWGQGTMVTVSS
VL: B1 VL with A50V, Y96F, Q100P, L104V, E105D
As to B2, the 50% inhibitory concentration (IC50) in assay [2] is 0.871 µg/mL.

B3: mAb 1C1 (antibody, V domains shown)
VH: EVQLLESGGGLVQPGGSLRLSCAASGFTFSRYFMGWVRQAPGKGLEWVSSIYSSGGYTSYADSVKGRFTISRDNSKNTLYLQMNSLRAEDTAVYYCARRWRDGTFDYWGQGTLVTVSS
VL: DIQMTQSPSSLSASIGDRVTISCRASQSVREYLNWYQQKPGKAPKLLIFAASSLQSGVPSRFSGSGSGTDFTLTISSLQPEDFATYYCQQSYSTRFTFGPGTKVDIK
notes: also called antibody 1C1
Take B3: in the assay with Neat-1, the “IC50 (read off the curve)” value was roughly 3 µg/mL.

B4: mAb 2F4 (antibody, V domains shown)
VH: EVQLLESGGGLVQPGGSLRLSCAASGFTFSPYMMQWVRQAPGKGLEWVSSIWPSGGKTYYADSVKGRFTISRDNSKNTLYLQMNSLRAEDTAVYYCARVRRGGATDYWGQGTLVTVSS
VL: DIQMTQSPATLSVSPGERATLSCRASQSVSSNLGWYQQKPGQAPRLLIYGASTRATGIPTRFSGSGSGTEFTLTISSLQSEDFATYYCQQYQNWPLLTFGGGTKVEIK
notes: also called antibody 2F4; anti-IsdH mAb 2F4
As a reminder, the Kd is the equilibrium constant for the complex coming apart. The low end stands for a tighter complex, the high end for a looser complex. Regarding B4, the “IC50 (read off the curve)” value in the assay with Neat-2 subunit of IsdH [3] is roughly 1 µg/mL. Also, the figures for the dissociation constant (Kd) (in assay [4]; in the assay with Neat-2 subunit of IsdH [5]) were 3.66 nM and 2.57 nM, respectively.
